Measured values as given in patent US9290794B2, “Mutant protease biosensors with enhanced detection characteristics” (PROMEGA CORPORATION, priority 2010, dated 2016).

System: Caspase-8
Experiment: Caspase-8 biosensors transfected into HeLa cells, induction with TRAIL
Assay type: cell-based
Conditions: 1 μg/mL TRAIL, 37° C.
Excerpt: To evaluate whether the mutant thermostable luciferase biosensors of the present invention can be used to detect Caspase-8 activity in cells, biosensors were generated that contained the Caspase-8 cleavage site, LETDG (SEQ ID NO:15). Two different biosensors, TL-CP358-Caspase-8 and TL-CP233-Caspase-8 were used. As controls, the firefly (Photinus pyralis; Ppy) luciferase biosensors FF-CP234-Caspase-8 (M/Ppy residues 234-544/LETDG/Ppy residues 4-230/V), FF-CP359-Caspase-8 (M/Ppy residues 359-544/LETDG/Ppy residues 4-355/V), and TL-CP358-DEVD.
All biosensors were transfected into HeLa cells. Cells were plated at a (10,000/well) into a 96-well tissue culture plate. […]
After overnight incubation, the media was removed from the cells and replaced with CO2 Independent Media (Invitrogen Cat. No. 18045088) with 2 mM Luciferin EF (Promega Cat. No. E6551). Cells were pre-equilibrated with Luciferin EF for 2 hrs in a Varioskan luminometer with bioluminescence readings taken every 20 min. […] The cells were again incubated at 37° C. in a Varioskan luminometer for 500+ min with bioluminescence measured every 20 min.
FIGS. 5 and 7 identify the kinetic profiles of Caspase 8 activation by TRAIL over time at 37° C. […] Fold induction of activation was calculated by dividing the signal of samples with TRAIL over the signals without trail at a given time point. […]

B1: TL-CP358-Caspase 8: TL Ppe fragments 358-543 and 4-354 with caspase-8 site linker … (SEQ ID NOs:59 and 60) (protein)
chain: MPGSTGKIVPLHAVKVVDPTTGKILGPNEPGELYFKGPMIMKGYYNNEEATKAIIDNDGWLRSGDIAYYDNDGHFYIVDRLKSLIKYKGYQVAPAEIEGILLQHPYIVDAGVTGIPDEAAGELPAAGVVVQTGKYLNEQIVQDYVASQVSTAKWLRGGVKFLDEIPKGSTGKIDRKVLRQMLEKHTNGSSLETDGSSGKNILYGPEPFYPLEDGTAGEQMFDALSRYAAIPGCIALTNAHTKENVLYEEFLKLSCRLAESFKKYGLKQNDTIAVCSENSLQFFLPVIASLYLGIIVAPVNDKYIERELIHSLGIVKPRIVFCSKNTFQKVLNVKSKLKSIETIIILDLNEDLGGYQCLNNFISQNSDSNLDVKKFKPYSFNRDDQVASIMFSSGTTGLPKGVMLTHKNIVARFSIAKDPTFGNAINPTSAILTVIPFHHGFGMMTTLGYFTCGFRVVLMHTFEEKLFLQSLQDYKVESTLLVPTLMAFLAKSALVEKYDLSHLKEIASGGAPLSKEIGEMVKKRFKLNFVRQGYGLTETTSAVLITPKGV
In the case of B1, the “detection of Caspase 8 activation by TRAIL” value is reported as “can detect Caspase 8 activation by TRAIL”.
